For assay [1], the target named is ECD_FGFR1-Fc receptor (extracellular region of fibroblast growth factor receptor 1) (UniProt P11362).
Assay [2] has the same target. This is another data set of the same source.

UniProt P11362, sequence (P11362 22-376): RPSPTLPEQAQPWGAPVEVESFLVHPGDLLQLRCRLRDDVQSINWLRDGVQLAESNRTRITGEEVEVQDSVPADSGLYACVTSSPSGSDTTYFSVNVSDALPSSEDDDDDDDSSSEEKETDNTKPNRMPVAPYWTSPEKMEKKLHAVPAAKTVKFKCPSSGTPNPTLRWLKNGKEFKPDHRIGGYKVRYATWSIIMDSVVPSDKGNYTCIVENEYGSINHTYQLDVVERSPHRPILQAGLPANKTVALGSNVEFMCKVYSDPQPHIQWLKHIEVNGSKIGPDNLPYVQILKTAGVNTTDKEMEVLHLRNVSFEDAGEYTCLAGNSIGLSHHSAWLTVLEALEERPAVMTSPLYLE

Turning to “FGF2 Cys78-α-amanitin/PrK96-MMAE conjugate (from UniProt P09038-2 23-155) (ligand)”, in assay [1], the cytotoxicity (AlamarBlue viability), FGFR1-positive NCI-H446 cells, reduction of viability at the highest tested concentration; no toxicity for FGFR1-negative HCC-15 was determined as 95%. In assay [2], this substance came in with an internalization of the DyLight550-labelled conjugate, intracellular fluorescence, NCI-H520 (FGFR1 positive) against HCC-15 (FGFR1 negative) cells of 2 times and an internalization of the DyLight550-labelled conjugate, intracellular fluorescence, U2OS-FGFR1 against control U2OS cells of 5 fold.

(Values after publication PMC6073801.)
